Source: the supplement of paper PMC12783771
± gives the standard deviation of the averaged measurements.

B1: library; a variant is named by its letters at X, in order (parent)
chain: MNIQIGELAKRTACPVVTIRFYEQEGLLPPPGRSRGNFRLYGEEHVERLQFIRHCRSLDMPLSXVRTLLSYRKRPDQDCGEVXMLLDEHIRQVESRIGALLELXHHXVELREACSGARPAQSCGILQXLSXCVCXTRGTTAHXSD

What was measured:
[1] = variants of: B1; assay: sfGFP reporter fluorescence (15 h) (µM FITC); higher = higher leak; details: library round: Round 3; ligand: none
Procedure: (§1)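 Cell-free biosensing: 1 µL Echo-assembled CFE reactions with linear PbrR variant templates (5 nM) and pPbrR-sfGFP reporter, with 1 µM Pb, 30 µM Zn or no ligand; endpoint sfGFP fluorescence after 15 h at 30 °C calibrated as µM FITC. Round 3 ML-predicted PbrR mutants; up to 3 biological replicates.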

[2] = variants of: B1; assay: sfGFP reporter fluorescence (15 h) (µM FITC); higher = stronger transcriptional activation; details: library round: Round 3
Procedure: as §1

Row | Variant | sfGFP reporter fluorescence [1] | sfGFP reporter fluorescence ([2]; ligand: 1 µM Pb) | sfGFP reporter fluorescence ([2]; ligand: 30 µM Zn)
1 | MNIQIGELAKRTACPVVTIRFYEQEGLLPPPGRSRGNFRLYGEEHVERLQFIRHCRSLDMPLSDVRTLLSYRKRPDQDCGEVTMLLDEHIRQVESRIGALLELKHHCVELREACSGARPAQSCAILQMLSDCVCATRGTTAHPSD | 0.212 ± 0.015 | 1.58 ± 0.084 | 2.41 ± 0.38
2 | MNIQIGELAKRTACPVVTIRFYEQEGLLPPPGRSRGNFRLYGEEHVERLQFIRHCRSLDMPLSTVRTLLSYRKRPDQDCGEVTMLLDEHIRQVESRIGALLELKHHCVELREACSGARPAQSCGILQGLSDCVCRTRGTTAHPSD | 1.83 ± 0.057 | 2.37 ± 0.091 | 2.74 ± 0.22
3 | MNIQIGELAKRTACPVVTIRFYEQEGLLPPPGRSRGNFRLYGEEHVERLQFIRHCRSLDMPLSDVRTLLSYRKRPDQDCGEVTMLLDEHIRQVESRIGALLELKHHCVELREACSGARPAQSCGILQGLSSCVCATRGTTAHPSD | 0.21 ± 0.0021 | 1.43 ± 0.041 | 2.22 ± 0.1
4 | MNIQIGELAKRTACPVVTIRFYEQEGLLPPPGRSRGNFRLYGEEHVERLQFIRHCRSLDMPLSDVRTLLSYRKRPDQDCGEVTMLLDEHIRQVESRIGALLELKHHLVELREACSGARPAASCGILQGLSACVCPTRGTTAHLSD | 0.0458 ± 0.0015 | 0.245 ± 0.019 | 0.407 ± 0.017
5 | MNIQIGELAKRTACPVVTIRFYEQEGLLPPPGRSRGNFRLYGEEHVERLQFIRHCRSLDMPLSDVRTLLSYRKRPDQDCGEVTMLLDEHIRQVESRIGALLELKHHILELRAACSGARPAQSCGILQGLSDCVCDTRGTTAHPSD | 0.0428 ± 0.0025 | 0.094 ± 0.0043 | 0.294 ± 0.03
6 | MNIQIGELAKRTACPVVTIRFYEQEGLLPPPGRSRGNFRLYGEEHVERLQFIRHCRSLDMPLSDVRTLLSYRKRPDQDCGEVTMLLDEHIRQVESRIGALLELKHHCVELREACSGARPAQSCGILQILSDCVCATRGTTAHKSD | 0.305 ± 0.035 | 1.87 ± 0.27 | 2.86 ± 0.33
7 | MNIQIGELAKRTACPVVTIRFYEQEGLLPPPGRSRGNFRLYGEEHVERLQFIRHCRSLDMPLSDVRTLLSYRKRPDQDCGEVTMLLDEHIRQVESRIGALLELKHHCVELREACSGARPAQSCGLLQILSDCVCATRGTTAHPSD | 0.059 ± 0.0049 | 0.0617 ± 0.0061 | 0.614 ± 0.022
